Experiment [1] addresses T1, topoisomerase 2-binding protein 1 (TOPBP1) (human, UniProt Q92547 1-1522).
T1 construct: TOPBP1 in lysates of human cells, co-immunoprecipitated with Myc antibody
The experiment can be described thus: co-IP with Myc antibody, Western blot for TOPBP1. As for the experimental part: (§1) Resuspended cells were lysed by incubation with rotation for 1 hour at 4° C. For Benzonase treatment to remove DNA, samples were incubated in the lysis buffer described above supplemented with 25 U Benzonase nuclease (Novagen, Merck Millipore) for 2 hours at 4° C. Lysates were subjected to centrifugation at 13,000 rpm for 40 minutes at 4° C. to remove cell debris. The supernatant was then transferred to a fresh cold low bind 1.5 mL tube for subsequent immunoprecipitation. For immunoprecipitation, protein lysates were incubated with antibody for the protein of interest (10 μg per mL lysate) or IgG control (Refer to Tables 4 and 5 for the list of antibodies used in this study), preincubated with Dynabeads Protein G, as per manufacturer's instructions (Life Technologies), with rotation overnight at 4° C. The following day, beads were washed three times in cold lysis buffer and separated on a magnetic rack. Proteins were then eluted from the beads by resuspension in 50 mM Glycine pH 2.8 and sodium dodecyl sulphate (SDS) sample buffer (0.2 M Tris-Cl, pH 6.8, 28% glycerol, 13.5% β-mercaptoethanol, 6% SDS, 6 mM EGTA, and 0.07% bromophenol blue) for 10 minutes at 70° C. and subjected to Western blot analysis, as described below, to detect various protein interactions. […]

The target in experiment [2] is T2, replication protein A (RPA), heterotrimeric complex (human, UniProt P27694 1-616; P15927 1-270; P35244 2-121).
T2 construct: Endogenous RPA of human cell lines, detected with an RPA2 (RPA32) antibody; also called detected through RPA32; RPA2
T2 sequence (P27694 whole entry, chain 1 of 3): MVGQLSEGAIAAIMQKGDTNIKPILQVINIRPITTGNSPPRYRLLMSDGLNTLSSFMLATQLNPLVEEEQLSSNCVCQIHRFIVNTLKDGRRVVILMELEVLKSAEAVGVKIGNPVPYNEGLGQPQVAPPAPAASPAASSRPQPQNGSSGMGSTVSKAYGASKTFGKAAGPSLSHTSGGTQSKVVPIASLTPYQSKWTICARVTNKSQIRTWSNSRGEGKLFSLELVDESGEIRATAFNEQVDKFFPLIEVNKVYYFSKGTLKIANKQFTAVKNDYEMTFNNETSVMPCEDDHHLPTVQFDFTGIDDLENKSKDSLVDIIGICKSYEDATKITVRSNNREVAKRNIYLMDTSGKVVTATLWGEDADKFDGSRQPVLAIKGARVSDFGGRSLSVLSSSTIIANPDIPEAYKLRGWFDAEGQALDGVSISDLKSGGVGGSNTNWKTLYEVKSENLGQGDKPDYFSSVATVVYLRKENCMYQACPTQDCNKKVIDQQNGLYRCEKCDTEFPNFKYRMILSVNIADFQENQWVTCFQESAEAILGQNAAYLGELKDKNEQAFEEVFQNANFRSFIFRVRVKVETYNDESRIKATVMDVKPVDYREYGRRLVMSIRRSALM
T2 sequence (P15927 whole entry, chain 2 of 3): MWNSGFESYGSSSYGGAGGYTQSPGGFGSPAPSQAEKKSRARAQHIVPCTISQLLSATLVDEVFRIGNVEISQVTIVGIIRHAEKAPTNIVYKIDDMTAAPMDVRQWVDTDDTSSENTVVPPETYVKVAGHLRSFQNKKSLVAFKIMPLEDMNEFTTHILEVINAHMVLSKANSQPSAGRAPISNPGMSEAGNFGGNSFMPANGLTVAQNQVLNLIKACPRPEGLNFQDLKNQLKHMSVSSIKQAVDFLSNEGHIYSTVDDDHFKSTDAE
T2 sequence (P35244 2-121 limits assumed, chain 3 of 3): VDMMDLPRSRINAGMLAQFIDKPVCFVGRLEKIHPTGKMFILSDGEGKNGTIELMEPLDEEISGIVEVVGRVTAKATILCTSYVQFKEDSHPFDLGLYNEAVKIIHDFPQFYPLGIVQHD
The experiment in a line: co-IP of Myc-DDK-tagged ZNF827 mutants, Western blot for RPA. As for the experimental part:
as §1

Here are results for 1 molecule from patent US20220305003A1, “METHODS OF TREATING CANCER WITH AN INHIBITOR OF ZNF827” (CHILDREN'S MEDICAL RESEARCH INSTITUTE, priority 2019, published 2022).

T1 sequence (Q92547 whole entry): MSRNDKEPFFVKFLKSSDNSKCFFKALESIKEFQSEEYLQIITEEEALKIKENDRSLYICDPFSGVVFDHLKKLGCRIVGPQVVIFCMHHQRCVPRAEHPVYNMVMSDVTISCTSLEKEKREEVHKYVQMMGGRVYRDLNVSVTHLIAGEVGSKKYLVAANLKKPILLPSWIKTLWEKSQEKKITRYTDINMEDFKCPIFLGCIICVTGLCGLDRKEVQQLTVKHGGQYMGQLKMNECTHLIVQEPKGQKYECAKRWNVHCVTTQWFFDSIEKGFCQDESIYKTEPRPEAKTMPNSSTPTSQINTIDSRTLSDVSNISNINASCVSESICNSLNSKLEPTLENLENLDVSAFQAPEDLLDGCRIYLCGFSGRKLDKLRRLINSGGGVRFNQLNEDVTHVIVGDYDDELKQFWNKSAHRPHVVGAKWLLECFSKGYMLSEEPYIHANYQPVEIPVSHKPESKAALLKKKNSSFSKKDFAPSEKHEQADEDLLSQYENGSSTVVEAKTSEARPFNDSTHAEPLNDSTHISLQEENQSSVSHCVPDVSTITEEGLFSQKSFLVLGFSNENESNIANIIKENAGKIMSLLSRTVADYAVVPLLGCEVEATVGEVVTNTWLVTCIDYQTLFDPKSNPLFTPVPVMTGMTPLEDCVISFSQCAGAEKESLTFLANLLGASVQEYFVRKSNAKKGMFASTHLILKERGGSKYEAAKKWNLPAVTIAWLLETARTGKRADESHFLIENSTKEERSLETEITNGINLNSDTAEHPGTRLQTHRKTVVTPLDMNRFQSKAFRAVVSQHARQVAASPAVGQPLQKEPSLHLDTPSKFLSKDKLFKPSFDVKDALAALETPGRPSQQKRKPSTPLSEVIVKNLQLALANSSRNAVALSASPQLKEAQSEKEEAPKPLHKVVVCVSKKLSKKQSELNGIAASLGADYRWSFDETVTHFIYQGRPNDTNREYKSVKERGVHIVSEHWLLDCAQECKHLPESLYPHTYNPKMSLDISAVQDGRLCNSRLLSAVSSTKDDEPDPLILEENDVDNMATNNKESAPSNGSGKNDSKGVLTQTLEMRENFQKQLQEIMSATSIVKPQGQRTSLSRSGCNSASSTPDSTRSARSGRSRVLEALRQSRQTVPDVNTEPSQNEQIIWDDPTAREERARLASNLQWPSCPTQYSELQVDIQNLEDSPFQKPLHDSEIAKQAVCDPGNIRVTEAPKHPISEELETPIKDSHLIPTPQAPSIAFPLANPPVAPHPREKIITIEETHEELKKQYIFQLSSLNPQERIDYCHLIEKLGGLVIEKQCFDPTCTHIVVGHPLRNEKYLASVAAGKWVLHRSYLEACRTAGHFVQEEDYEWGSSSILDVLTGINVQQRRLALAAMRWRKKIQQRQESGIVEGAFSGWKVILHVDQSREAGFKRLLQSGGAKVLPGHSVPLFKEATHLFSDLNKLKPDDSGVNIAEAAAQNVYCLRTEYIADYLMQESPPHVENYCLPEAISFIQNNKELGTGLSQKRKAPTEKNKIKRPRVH

B1: ZNF827 mutant with no zinc fingers (ZnF1-9 deleted) (other)
chain: MPRRKQEQPKRLPSHVSRQEEAEGELSEGEHWYGNSSETPSEASYGEVQENYKLSLEDRIQEQSTSPDTSLGSTTPSSHTLELVALDSEVLRDSLQCQDHLSPGVSSLCDDDPGSNKPLSSNLRRLLEAGSLKLDAAATANGRVESPVNVGSNLSFSPPSHHAQQLSVLARKLAEKQEQNDQYTPSNRFIWNQGKWLPNSTTTCSLSPDSAILKLKAAANAVLQDKSLTRTEETMRFESFSSPFSSQSASSTLAALSKKVSERSLTPGQEHPPPASSFLSLASMTSSAALLKEVAARAAGSLLAEKSSLLPEDPLPPPPSEKKPEKVTPPPPPPPPPPPPPPPQSLELLLLPVPKGRVSKPSNSASEEESGKPQHFLRTEAKVKEEIPDPDVKGSPHLSDSACLGQQREGGGTELVGTMMTSNTPERTSQGGAGVSPLLVKEEPKEDNGLPTSFTLNAADRPATRTRPLEQKLISEEDLAANDILDYKDDDDKV
notes: also called ZnF1-9d mutant
Take B1: the binding result in experiment [1] and in experiment [2] was “no binding” throughout.
